Measurements taken from patent publication US20240383994A1 (CHIA TAI TIANQING PHARMACEUTICAL GROUP, published 2024).
Where two headings read alike, the source gives them in different places.

T1: CynoCD40-His protein (Acro, Cat. No.: CD0-C52H6) (cynomolgus monkey, UniProt P25942 21-193 (human entry))
T1 construct: Bought protein; also called cynomolgus monkey CD40 antigen; not shown: His tag
T1 chain: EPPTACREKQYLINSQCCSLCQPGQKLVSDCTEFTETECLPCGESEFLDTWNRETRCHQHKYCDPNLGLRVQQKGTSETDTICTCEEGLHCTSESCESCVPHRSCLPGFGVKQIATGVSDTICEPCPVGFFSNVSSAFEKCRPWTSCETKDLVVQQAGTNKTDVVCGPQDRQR


What was measured:
[1] = target: T2, human CD40 (hCD40), full length, on cells (human, UniProt P25942 21-277); assay: cell-based or functional assay
[2] = target: T3, hCD40-His protein (Acro, Cat. No.: CD0-H5228) (human, UniProt P25942 21-193); assay: BLI (Fortebio Octet RED96e), antibody captured on AHC sensor, antigen 1.56-100 nM, 1:1 model
T3 construct: Bought protein; also called human CD40 antigen; not shown: His tag
Protocol: (§1) The affinity of humanized anti-CD40 antibodies to an hCD40-His protein (Acro, Cat. No.: CD0-H5228) and a CynoCD40-His protein (Acro, Cat. No.: CD0-C52H6) was detected by a ForteBio molecular interaction system. Firstly, an AHC biosensor (Fortebio, Cat. No.: 18-5060) was activated, and then immersed in an anti-CD40 antibody solution at a final concentration of 5 μg/mL to capture the antibodies. Serially 2-fold diluted hCD40-His protein and CynoCD40-His protein in a final concentration range of 1.56 nM-100 nM were then […] the AHC biosensor. The response signals were detected in real time on a Fortebio molecular interaction system (Fortebio Octet RED96e) to give association and dissociation curves. After the completion of dissociation in each cycle, the AHC biosensor was regenerated for the next capture; the procedure was repeated until the affinity of the different antibodies for CD40 was determined. The resulting data were analyzed by Fortebio Data Analysis 11.0 software using a 1:1 (Langmuir) binding model to determine the Kₐ (Kₒₙ) and Kd (Kdis) values, and the dissociation constant KD was calculated by KD=Kd/Kₐ. See www.fortebio.com for more detailed detection procedures and related information.

[3] = target: T1, CynoCD40-His protein (Acro, Cat. No.: …); assay: as above
Protocol: as §1

[4] = target: T2, human CD40 (hCD40), full length, on …; assay: cell-based or functional assay; remark: listed apart in the source
[5] = target: T2, human CD40 (hCD40), full length, on …; assay: flow cytometry (MFI) on 293T-hCD40-NFκB cells, PE anti-human IgG detection
hCD40-mFc = target: T4, hCD40-mFc (human); assay: flow cytometry, blocking of hCD40-mFc (2 µg/mL) binding to CHO-K1-hCD40L cells
T4 construct: Prepared in-house in CHO cells; also called human CD40 recombinant protein containing a mouse antibody heavy chain Fc; Human CD40-mFc
Protocol: A CHO-K1-hCD40L cell suspension and a CHO-K1-CynoCD40L cell suspension at a cell concentration of 3×10⁵ cells/mL were separately added into a 96-well U-bottom plate at 100 μL/well. An hCD40-mFc protein at a final concentration of 2 μg/mL (prepared in-house, SEQ ID NO: 64) or a cynoCD40-mFc protein at a final concentration of 2 μg/mL (prepared in-house, SEQ ID NO: 65) was added correspondingly, before serially 2-fold diluted anti-CD40 antibodies in a final concentration range of 312.5 ng/ml-40000 ng/ml were added. The mixture was mixed well, and then incubated at 4° C. for 1 h. The cells were washed with PBS containing 2% of FBS, and then a PE-conjugated goat anti-mouse IgG (H+L) antibody (Abcam, Cat. No.: ab97041) diluted at a volume ratio of 1:500 was added, and the mixture was incubated at 4° C. for 0.5 h. The cells were washed with PBS containing 2% of […], and then resuspended in PBS containing 2% of FBS. The fluorescence signals were detected on a flow cytometer (Sartorius IQue3). The activity of anti-CD40 antibodies to block the binding of CHO-K1-hCD40L cells to an hCD40-mFc protein and CHO-K1-cynoCD40L cells to a cynoCD40-mFc protein was analyzed by the mean fluorescence intensity (MFI) of staining, and the IC₅₀ value was calculated by GraphPad Prism software.

[6] = target: T2, human CD40 (hCD40), full length, on …; assay: cell-based or functional assay; remark: listed apart in the source
[7] = target: T2, human CD40 (hCD40), full length, on …; assay: cell-based or functional assay; remark: listed apart in the source
[8] = target: T2, human CD40 (hCD40), full length, on …; assay: flow cytometry (MFI) on CHO-K1-hCD40 cells, PE anti-human IgG detection

IC50 (read off the curve); NF-κB luciferase reporter (RLU), 293T-hCD40-NFκB cells co-cultured 1:1 with CHO-K1-hCD40L cells [1]	Kd [2]	koff [2]	kon [2]	Kd [3]	koff [3]	kon [3]	MFI value (CD95 on Ramos cells), Fc crosslinking with anti-human IgG Fcγ antibody, 1 µg/mL antibody [4]	MFI value (CD95 on Ramos cells), Fc crosslinking with anti-human IgG Fcγ antibody, 10 µg/mL antibody [4]	EC50 (read off the curve) [5]	IC50 (hCD40-mFc)	IC50, inhibition of Ramos cell apoptosis induced by CD40L and IL-4 [6]	Inhibition, % of Ramos cell apoptosis at 0.064 ng/L (so in the source) [6]	Inhibition, % of Ramos cell apoptosis at 0.32 ng/L (so in the source) [6]	Inhibition, % of Ramos cell apoptosis at 1.6 ng/L (so in the source) [6]	Inhibition, % of Ramos cell apoptosis at 8 ng/L (so in the source) [6]	Inhibition, % of Ramos cell apoptosis at 40 ng/L (so in the source) [6]	Inhibition, % of Ramos cell apoptosis at 200 ng/L (so in the source) [6]	Inhibition, % of Ramos cell apoptosis at 1000 ng/L (so in the source) [6]	EC50 [8]	Binder	also measured
~2 ng/mL	0.255 nM	0.000414 s⁻¹	1.63e+06 M⁻¹ s⁻¹	0.243 nM	0.000484 s⁻¹	1.99e+06 M⁻¹ s⁻¹	14100 MFI	12300 MFI	~3 ng/mL	38.4 nM	–	–	–	–	–	–	–	–	–	hzA01-3.3 (antibody, human IgG4 S228P, kappa, V domains shown, Humanized A01; also called hzA01L3 + hzA01H3) VH: QVQLKESGPGLVKPSETLSLTCTVSGFSLPTSGVHWIRQPPGKGLEWIGVIWAGGDTNYNSALKSRVTISKDNSKSQVFLKLSSVTAADTAVYYCLGHGHFDVWGQGTLVTVSS VL: DVVMTQSPLSLPVTLGQPASISCRSSQSLVHSSGNTYLQWYLQRPGQSPGLLIYKVSNRFSGVPDRFSGSGSGTDFTLKISRVEAEDVGVYYCSQTTHVPWTFGQGTKLEIKR	–
~0.6 ng/mL	0.153 nM	0.000283 s⁻¹	1.85e+06 M⁻¹ s⁻¹	0.162 nM	0.000276 s⁻¹	1.7e+06 M⁻¹ s⁻¹	–	–	~2 ng/mL	21.3 nM	0.00508 nM	0%	17%	82%	96%	95%	96%	95%	0.43 nM	Chi-A01 (antibody, human IgG4 S228P, kappa, V domains shown, also called chimeric A01) VH: QVQLKESGPGLVAPSQSLSITCTVSGFSLPTSGVHWVRQPPGKGLEWLGVIWAGGDTNYNSALMSRLSISKDNSKSQVFLKMNSLQKDDTAIYYCLGHGHFDVWGAGTTVTVSS VL: DVVMTQTPLSLPVSLGDQASISCRSSQSLVHSSGNTYLQWYLQKPGQSPGLLIYKVSNRFSGVPDRFSGSGSGTDFTLKISRVEAEDLGVYFCSQTTHVPWTFGGGTKLEIKR	IC50, inhibition of Ramos cell apoptosis induced by CD40L and IL-4 [7]: 0.00413 nM; Inhibition, % of Ramos cell apoptosis at 0.0128 ng/mL [7]: 11%; Inhibition, % of Ramos cell apoptosis at 0.064 ng/mL [7]: 10%; Inhibition, % of Ramos cell apoptosis at 0.32 ng/mL [7]: 39%; Inhibition, % of Ramos cell apoptosis at 1.6 ng/mL [7]: 79%; Inhibition, % of Ramos cell apoptosis at 8 ng/mL [7]: 101%; Inhibition, % of Ramos cell apoptosis at 40 ng/mL [7]: 99%; Inhibition, % of Ramos cell apoptosis at 200 ng/mL [7]: 101%; Inhibition, % of Ramos cell apoptosis at 1000 ng/mL [7]: 100%
–	–	–	–	–	–	–	–	–	–	–	0.00499 nM	5%	20%	85%	98%	97%	97%	94%	0.39 nM	Chi-A02 (antibody, human IgG4 S228P, kappa, V domains shown, also called chimeric A02) VH: QVQLKESGPGLVAPSQSLSITCTVSGFSLTSSGVHWVRQPPGKGLEWLGVIWAGGDTSYNSALMSRLSISKDNSKSQVFLKMNSLQTDDTAMYYCLGHGHLDVWGAGTTVTVSS VL: DVVMTQTPLSLPVSLGDQASISCRSSQSLVHSSGNTYLHWYLQKPGQSPGLLIYKVSNRFSGVPDRFSGSGSGTDFTLKISRVEAEDLGVYFCSQTTHVPWTFGGGTKLEIKR	–
~8 ng/mL	0.118 nM	5.61e-05 s⁻¹	474000 M⁻¹ s⁻¹	0.0559 nM	4.3e-05 s⁻¹	769000 M⁻¹ s⁻¹	12500 MFI	12100 MFI	~10 ng/mL	20.6 nM	0.0183 nM	4%	12%	41%	85%	97%	99%	98%	0.36 nM	Iscalimab (CFZ533) (antibody, human IgG1, kappa, N297A, V domains shown, also called BM; benchmark) VH: QVQLVESGGGVVQPGRSLRLSCAASGFTFSSYGMHWVRQAPGKGLEWVAVISYEESNRYHADSVKGRFTISRDNSKITLYLQMNSLRTEDTAVYYCARDGGIAAPGPDYWGQGTLVTVSS VL: DIVMTQSPLSLTVTPGEPASISCRSSQSLLYSNGYNYLDWYLQKPGQSPQVLISLGSNRASGVPDRFSGSGSGTDFTLKISRVEAEDVGVYYCMQARQTPFTFGPGTKVDIRR	IC50, inhibition of Ramos cell apoptosis induced by CD40L and IL-4 [7]: 0.0247 nM; Inhibition, % of Ramos cell apoptosis at 0.0128 ng/mL [7]: -26%; Inhibition, % of Ramos cell apoptosis at 0.064 ng/mL [7]: -24%; Inhibition, % of Ramos cell apoptosis at 0.32 ng/mL [7]: -10%; Inhibition, % of Ramos cell apoptosis at 1.6 ng/mL [7]: 5%; Inhibition, % of Ramos cell apoptosis at 8 ng/mL [7]: 72%; Inhibition, % of Ramos cell apoptosis at 40 ng/mL [7]: 98%; Inhibition, % of Ramos cell apoptosis at 200 ng/mL [7]: 100%; Inhibition, % of Ramos cell apoptosis at 1000 ng/mL [7]: 101%
–	2.51 nM	0.00147 s⁻¹	586000 M⁻¹ s⁻¹	–	–	–	–	–	–	–	0.134 nM	-8%	-9%	-10%	18%	66%	90%	98%	1.36 nM	Chi-A03 (antibody, human IgG4 S228P, kappa, V domains shown, also called chimeric A03) VH: DVQLQESGPDRVKPSQSLSLTCTVTGYSITSDYSWHWIRQFPGNKLEWMGYIYSSGHTYYNPSLKSRISFTRDTSKNQFFLQLNSVTTEDTATYYCAIYYYGRSYFDNWGRGTTLTVSS VL: QIVLTQSPAIMSASPGEKVTLTCSASSSVNYMHWYQQKSGTSPKRWIYDTSKLASGVPARFSGSGSGTSYSLTISSMEAEDAATYYCQQWSSNPLTFGAGTKLELKR	–
